Assay results published in PMC7054171.

Biological target: GST tagged Cdc42 Q61L (human) (UniProt P60953)
Assay: pull-down

GST tagged Cdc42 Q61L (human), sequence (P60953 whole entry Q61L): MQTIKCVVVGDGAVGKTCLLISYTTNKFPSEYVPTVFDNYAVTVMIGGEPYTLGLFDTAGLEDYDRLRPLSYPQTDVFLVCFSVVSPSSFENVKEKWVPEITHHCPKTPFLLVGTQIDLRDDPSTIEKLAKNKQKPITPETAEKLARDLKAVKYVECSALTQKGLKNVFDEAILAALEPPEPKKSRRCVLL

- fold reduction in binding against the lit state variant: > 5 fold
Substance: mVenus-Z-lock-WASP dark (zDK2-GS0-CBD-LOV2, dark state variant) (from UniProt P42768 230-288; O49003 404-546) (designed binder)
